Reference: the DeepSol protein solubility set

test: soluble on expression in E. coli; label from the status in PepcDB or PDB records

Sequence	soluble on expression in E. coli
MSLEQKQMEEKIMNLLTSAPDKTFALEDLEIEIALNNADNFKLMVKALVKLEDSGTIVRSRKNRYALPEKMDLVKGTFRAHERGFGFVLPEEKEMDDIFIPPNEVKDAMNGDLVFATITKRKGDNLAEGTIKKIVERKTTQIVGTYMEDLAGTPIVMPDDKRLFGEVEIDLEDGLKPVDGHKVIVELTEYATGHARARGVVKSIIGHRNDPGVDILSIIHKHGISIGFPEEVMEQVSKAPDLVDDSDIGNRRDLRDQMIITIDGADAKDLDDAVTVKQLPNGNWKLGVHIADVTHYVTEGSPLDIEAQERGTSVYLVDRVIPMLPHKLSNGICSLNPQVDRFTMSCEMEIDQEGHVVNHEIFESIIKTTERMTYTDVNDILVEKDEALREKYAPIVPMLEAMQNLAEILRRKREKRGAIDFDFKEARVVVDEDGHPEAVVMRERSAGEHLIEEFMLAANETVAEHFHWMDVPFIYRIHEDPKEDKLARFFEFITNFGLIVKGTANDIHPAALQQVLEEVKGKPEEMVVSTVMLRSMQQAKYDTVSAGHFGLSTDFYTHFTSPIRRYPDLIVHRLIREYLINGDVRPETLEKRAEELPEIAEHSSKMERRAVEAERETDELKKTEFMVDKVGERFIGIISSVTNFGLFIELPTTIEGLVHVSAMKGDYFKFHQNQLAMIGERTGQIYRIGDEVEVEVTKVDVDAREIDFALRSEGKPGPVSDKQKRQREKPIDKTRNFKSSSKNNRNKRRTGKSEDVKPKTERKDDEWYTKPKKKKKKKPFYQGVAKESPKKKKRREGHHHHHH	soluble
MHTDTTRENPQASAPQAADSSQDLAATAPGQLRVIKRNGTVVPYTDDKITVAITKAFLAVEGGTAAASSRIHDTVRRLTEQVTATFKRRMPSGGTIHIEEIQDQVELALMRAGEQKVARDYVIYREARAAERKNAGAASDVAQPHP	not soluble
RKQDTQRALHLLEEYRSKLSQTEDRQLRSSIERVISIFQSNLFQALIDIQEFYEVTLLDN	soluble
MSGVSTAAYFARRAAQKERVRILYRRALKDTLNWAVHRHIFYRDEDVDRIDKLIAHGEAEYNKWRHPDPYIVPWAPGGSKFCRNPTPPAGIEIVYNYGLEDNP	not soluble
TPPSGSGNWESLFNGLYRLQQRQRRKRKELTNLIRRFRNGAESLPDAVVVFRAEGNIVWCNRLAQHLLGFHWPEDSGQPISNLIRTPDFIKYLNKKDFSEPLEMRSPLNVERMLELRIVPYTEGEHLMVVRD	not soluble
MLSSSGHAIRRGITTSAALSNKHAFIVGAARTPIGSFRSSLSSVTAPELASVAIKAALERGAVKPSSIQEVFLGQVCQANAGQAPARQAALGAGLDLSVAVTTVNKVCSSGLKAIILAAQQIQTGHQDFAIGGGMESMSQVPFYVQRGEIPYGGFQVIDGIVKDGLTDAYDKVHMGNCGEKTSKEMGITRKDQDEYAINSYKKSAKAWENGNIGPEVVPVNVKSKKGVTIVDKDEEFTKVNFDKFTSLRTVFQKDGTITAANASTLNDGAAAVIVASQEAVSEQSLKPLARILAYGDAATHPLDFAVAPTLMFPKILERAGVKQSDVAQWEVNEAFSCVPLAFIKKLGVDPSLVNPHGGAVSIGHPIGMSGARLITHLVHTLKSGQIGVAAICNGGGGSSGMVIQKL	not soluble
MARPLEQAVAAIVCTFQEYAGRCGDKYKLCQAELKELLQKELATWTPTEFRECDYNKFMSVLDTNKDCEVDFVEYVRSLACLCLYCHEYFKDCPSEPPCSQ	soluble
METNALDVNKQSWDQAAPRFFARNPLPEYGPLAPSEEELHLFGDVDRLKVLEIGCGSGHSLKYLDEKQAGELWGIDLSTKQIEAAQTVLKDSKAPVTLFESPMEVNPGLPTDYFDIVFSIYALGWTTNLTKTLENVYRYLKPGGSFIFSWEHPMYNRVRQHQHGLTVDKSYHEEGAYAHEAWSSPAIMQQYRLSTYLNHLIDHGFKVERVIEDVCLADAQKHTNGWYGYEKAQMIPTTLIIKCLKQLEHHHHHH	not soluble
MGQFPRTVVHAAGTTEITTKPERVVVLDTGELDSVLSLGITPVGMTTTKGANPVPSYLADKVKDVERVGTINELNIEAIAALKPDLIIGSQLRADKLYPQLSDIAPTVFSIRPGSPWKENFLLVGEALGMEKEAEEKLNEYADRVAELKNNVPQNTEVSLVRFMPNKLRLYGNKSLIGVVLADAGLARPEKQNVDDLAVEISPENIDQAAGSVIFYTSYGKPDATGETAVVEGPAWKNLEAVAAGKAHRVNDDVWFLGLGPTGAMEIVSDLHDYLLEHHHHHH	soluble
MKNFVRTTLLAATLAGVSFGAFATAVPNPPLPAQDPIVQHLKLTNDQITRIKKLHQQLETDVSQISMKGIKDGALIEVIKSGKWDDAAVKQQLAAFSNIEQQARYYRVKYYFDLSKVLTPEQRQQVQQDLAQALE	not soluble
MDIDECESGAHQCSEAQTCVNFHGGYRCVDTNRCVEPYIQVSENRCLCPASNPLCRE	soluble
MKRANAVKLIVGKETHEKLKELAIVAAKCWNEVNWLRMQQFKEGERVDFSKTEKEVYEKYKQILKVNTQQVARKNAESWRSFFSLIEEKKGKLPKWFKPRPPGYWKDKSGKYKMLIIIRNDRYEIDEEKRIIYLKDFKLSLSFNGKLKWRGKQGRLEIIYNEARRSWYAYIPVEVQNDVKAEDKLKASIDLGIINLATVYVEDGSWYIFKGGSVLSQYEYYSKRISVAQKTLARHKQGRSREMKLLHEKRKRFLKHALNSMVRKIMEEFKNKGVGEIAIGYPKEISKDHGNKLTVNFWNYGYIIRRFEGVGEELGVKVVKVDEAWTSKTCSLCGEAHDDGRIKRGLYRCLRIGKVINADLNGAINILHIPESLGAGSRGQLTVRDRGNGLKTQPAVYRWTNGAGWVSSPTSYEVMKMKAVNCKPMNRHKGTFTLLEHHHHHH	not soluble
MSLDFSEPLLGFEPRDTEIGRRLEVWKAMQALTGPKNLLSLSPDPEMNSSSLLSTLSPAAWGRAEESVVRTKRMVGPVEVKEEENFFCGRPEKSHAKLVFVSTSGGSLWNLQAIHSMCRIEQEQIRSHISFGALCQRSAANECCPSWSLGNYLAVLSNRSSCQDTTQADTDRTLALLRFCATFYHRGVLVPACVGSSQDKPPFCAQVPAKCTGSNVVYEFLHYLLDRDFLSPQTADYQVPSLKFALLFLPIIKTSSLLDIYLDGLGDPIKVSDNYTSISGMDLGLKPRLLKYYLAEDTEGHHHHHH	not soluble
GLQTYEYGLKPQDGFEVITHFEFTSQHLDILNRLFTPLIGVESIGLYHFMSQFIDESQQLGLTHYIFMNELKINLLDFREQMDNLEAIGLIKTFVRHEEKYSHFVYELIQPPTAYQFFNDPMLSVFLFSEVDKKRYQALKSYFEKDEKDLSKYQQTTRKFTEVFNVPKKVNVSDQINLKQIKHYDGIDLSNETFDFEMLRQMLNHHFISNEIIDKEAKNLIIQLATLYGITEDGMKNVILSSITSAQQLSFEEMRKKARTYYLIEHDNQLPKLEHQTNKINDEKKDRQAEDTTNDWLQLLDETSPIDMLASWSDSEPTQSQKSMIEELINREKMNFGVINILLQFVMLKEDMKLPKSYIFEIASNWKKIGISNAKQAYEYALQVNQPKNYETHSNDKRQNNRGRQNQFLSKEKTPKWLQNRDDQEENKEINDDTLEEDRQAFLEKLNQKWKEEDN	not soluble
MPRISKRQLILESAAAIINEKGADYLTLDAVAQRAGISKGGLFYHFKSKDELIKELVNYANNLYRDNVNQHIGNEKNKKGQWLNAFIEATRAHRTDNAPITSGMLAAQGTNRSLLSPLKTSYQEWQYQITHDGLDEVDATIIRLAVDGLWLSEIFGISAIDEEMREKVIERLKMQIEKN	not soluble
GPGSMSTSKEAADQSRKFGFKESREQYQQRKRQEKQLKWTERLSKEDLGKLRIELDSLKRARFLAPQQNERKCLVHRMIRDLEAAENKEPKEETPVVATMPSALDSDSDDDIFSGKGTLTNDEHKRLFIPRSVRKKPEEKKCEKTAQQLAGEAERELLAAVHDDDDLDSFLDSLR	soluble
MIELSHEEELRYNRQIILKSVDFDGQEKLKASKMLIVGLGGLGCAASQYLAAAGVGNLTLLDFDTVSLSNLQRQVLHCDARLNMPKVESAKIALEQINPHINIETINAKLDEEKLAEIIPHFDIVLDCTDNVEIRNQLDRQCNHMKVPLISGAAIRMEGQVSVFTYEPNTPTYRDLSKLFRQNVLSCVEAGVLAPIVGIVGCIQALEAIKVRLKIGKNLCGRLLMIDGFSMNIREIKLPTNME	not soluble
SNAMDLQLSKRLQKVANYVPKGARLLDVGSDHAYLPIFLLQMGYCDFAIAGEVVNGPYQSALKNVSEHGLTSKIDVRLANGLSAFEEADNIDTITICGMGGRLIADILNNDIDKLQHVKTLVLQPNNREDDLRKWLAANDFEIVAEDILTENDKRYEILVVKHGHMNLTAKELRFGPFLLSNNTTVFKEKWQNELNKLTFALNSIPNSKMEERAILEDKIQDIKEVLDES	soluble
MSLNTENIRIIALGGVGEIGKNLYVIEIDSDIFVVDAGLMHPENEMLGIDVVIPDISYLIERSDRVKAIFLTHGHEENIGGVFYCLNKLSVPVYGTKLTLALLKETLKQYGVNKKPDLREIHSKSVITFESTKVSFFKTNHSIPDSVGVSFKTSLGSIVCTGDFKFDQTPVLNQTSDIGEIAKIGNSGVLCLLSDSANAEKPGYTPSEALVGGEISDVMYNAENRVIIAVFASNFNRIQQVIDAALQNGRKLAVSGKNISAILQLAMKLGYVTADEDMFIPVQEVKKYPKREVAILTGDNHGEPLAALTRIAKQGHKQLDIEEGDTVLIASSPIPGQELVYSKAVDLLTRAGAQVVFAQKRVHVSGHGCQEELKLMLNLLKPKYLIPVNGEYRMQKAHSKLAEEIGMKRSDIFLIEKGDVVEFRGQNVKIGDKVHSGNILIDGLGVGDIGNIVLRDRRLLSQDGILIVVITLDKKKKHLVSGPEIITRGFVYVRESEQLIVEATELVRELVNESTENAVVEWSALKQTMREALNQFLYEKTKRKPMIIPIIMEEGHHHHHH	soluble
MAELYVKPGNKERGWNDPPQFSYGLQTQTGGPKRTPLTKRVAAPQDGSPRAPETSGPPPVDHPPPSSKASRPPPMGSCPATGVEPPSSPVIESETLIEDVLRPLEQALEDCHGHTKKQVCDDISRRLVLLREQWAGGKLSIPVKKRMALLVQELLHHQWDAADDIHRSLMVDYVTEVSQWMVGVKRLIAEKRSLSSEETKEEKFTVEPENQTIPGFQQPS	not soluble
MAHHHHHHMPINPEYIPLPKSKEMFAIASWRDSPGLNATPAAHPGVSGSPHLASLDALRNGKGMAGMHAAATTTTTTTNTVTAAGGSLLPPAVQPAEDSKDAAKSKAPLTVAAGKKKKRKPASGATTSTASVAGSGVRSDDVDDFFVHILLPSCVSMQTLEFELQAQTTPLKSIEVGLPKVLFPRKPVGGAGGDASPPTTTALAPAVASAKIVSSPSCAPAVNPTNNELSLPLMRLPPADLPEPAPSESSCAAPPSASAAAAAHVNGDGTASAAAASGEHHGGEYQVSLLFAEKAEAEKTVTFVQRRWPTAAVSLASRSRSVLNATLVLKGMPNQAKTETVLTEMQNLPHTPSYVRLLRSERGVFKGVVFVKYANCEIAEECKLRLEKFVLGSRPLKVEFKKKSTAAASVSAAVIESKRSLQELVRELRVSAEHEGFHLSRSDVAKEALKVLKQLCQSYGLLFDMNDQQVTVRRVLGSNGIGSEKPSPALRPQSMAPAWAPATPAPLRPMDFKGISHWKDIRSQASTLGIMRPLGPEDGKPAFSAGRGRPL	not soluble
MGAFFVGAIWLTAAEAFCPAPKGLLPATVLRVVDGDTLHLKDGRRLRMIGLNAPELAGKGRPAEPFAEAARQRLRQLVAQSGGRVGLLPGRERQDRYGRVLAHVYGVTGINFEARLIAEGLAYRIAVLPNVALASCQKAAENHARRAGLGLWRRSPVLKAQQIHRAGFALFEGRVSRVQRNRGGLWITLQGQVVLRIAPNVLRRFDRRLLSGLSGRRIEARGWVVDRSRQPGRQSAHPRWMLSVTDPSMLGLILEHHHHHH	not soluble
